Experimental data from patent publication US11667697 (VANDERBILT UNIVERSITY, dated 2023).

T1: VACV A27 protein (vaccinia virus, UniProt P11258 1-110)
T1 sequence: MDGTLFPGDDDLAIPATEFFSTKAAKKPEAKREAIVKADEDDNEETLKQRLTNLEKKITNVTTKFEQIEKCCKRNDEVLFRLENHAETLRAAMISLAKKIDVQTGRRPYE

T2: VACV D8 protein (vaccinia virus, UniProt P04195 1-261)
T2 sequence: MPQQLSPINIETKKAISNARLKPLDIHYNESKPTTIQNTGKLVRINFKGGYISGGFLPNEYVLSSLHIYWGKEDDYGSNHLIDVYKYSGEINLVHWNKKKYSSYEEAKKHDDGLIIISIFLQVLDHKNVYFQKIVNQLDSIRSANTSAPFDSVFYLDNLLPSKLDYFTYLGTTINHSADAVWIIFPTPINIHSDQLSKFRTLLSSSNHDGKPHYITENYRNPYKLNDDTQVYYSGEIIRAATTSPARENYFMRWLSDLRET

B1: VACV-301 (antibody, V domains shown)
VH: EVQLLESGGGLVQPGGSLRLSCAASGFSFSSYAMSWVRQAPGKGLEWVSGIGNSGDRTFYADSAKGRFTIFRDNSNNRLYLQMNSLRAADTAVYYCAKWGRFESGAFWGQGVLVTVSS
VL: SYELTQSPSVSVSPGQTARITCSGDALPEQYAYWYQQKPGQAPVLVIYKDSERPSGIPERFSGSGSGTTVTLTITGVQAEDEADYYCQSADNSGTYEVFGTGTKVTVL
notes: human IgG3, anti-A27
B2: VACV-302 (antibody, V domains shown)
VH: QLQLQESGPGLVKPSETLSLTCTVSGGSIISSSYYWGWIRQPPGKGLEWLGSIYYSGSTYYNPSLKSRVTISVDTSKNQFSLKVTSVTAADTAVYYCARQISKAAAGSIDYWGQGTLVTVS
VL: not shown
notes: human IgG1, anti-A27
B3: VACV-230 (antibody, V domains shown)
VH: QVQLVQSGAEVKKPGASVKVSCKVSGYTLTELSMHWVRQAPGKGLEWLGGFDPEDGETIYAQKFQGRVTMTEDTSTDTAYMELSSLRSEDTAVYYCARESWLRGFDYWGQGTLVTVS
VL: not shown
notes: human IgG1, anti-D8
B4: VACV-136 (antibody, V domains shown)
V domain 1: QVTLKESGPVLVNPTETLTLTCTVSGFSLSNARMRVSWIRQPPGKALEWLAHIFSNDEKSYSTSLKSRLTISKDTSKSQVVLTMTNMDPVDTASYYCARMRGEYNSYYFDSWGQGTLVTVS
V domain 2: SYELTQPPSVSVSPGQTARITCSGDALPNQYAYWYQQKPGQAPVLVIYKDSERPSGIPERFSGSSSGTTVTLTISGVQAEDEADYYCQSADSSGTSVVFGGGTQVTV
notes: human IgG1, anti-D8
B5: VACV-56 (antibody, V domains shown)
VH: QVQLQQWGAGLLKPSETLSLTCAVYGGSFSGYYWSWIRQPPGKGLEWIGEINHSGSTNYNPSLKSRVTISVDTSKSQFSLKLSSVTAADTAVYYCARATQGSGTYKLFFYSYGMDVWGQGTTVTVSS
VL: not shown
notes: human IgG1, anti-D8
B6: VACV-8 (antibody, V domains shown)
VH: QVQLQQWGAGLLKPSETLSLTCAGYGGSFSGYFWSWIRQPPGKGLEWIGEINHSGSTDYNPSLKSRVTISLDTSKTQFSLKLSSVTAADTAVYYCARVMTGITNYYYYYGMDVWGQGTTVTF
VL: DIQLTQSPSFLSASVGDRVTITCRASQDISSYLAWYQQKPGKAPKLLIYAASTLQSGVPSRFSGSESGTEFTLTISSLQPENFATYYCQHLNSYPRGYTFGQGTKVDIK
notes: human IgG1, anti-D8
B7: VACV-59 (antibody, V domains shown)
VH: QVQLVQSGGGLVKPGGSLRLSCAASGFTFSDYYMSWIRQAPGKGLEWVSYISTSGSTIYYADSVKGRFTISRDNAKNSLYLQMNSLRAEDTAMYYCARDGDGSGSYTPPYYYYGLDVWGQGTTVTVSS
VL: DIQMTQSPSSLSASVGDRVTITCRASQSIRNYLNWYQQKSGKAPKLLIYAASSLQSGVPSRFSGSGSGTDFTLTISSLHPEDFATYYCQQSYSTPPLTFGGGTKVEIK
notes: human IgG2, anti-B5
B8: MPXV-2 (antibody, V domains shown)
VH: QVQLVQSGAEVKKPGASVKVSCKTSGYTFTTYAVHWVRQAPGQRLEWMGWINPGDGDTRYAQKFQDRVTISSDTSATTVYMELSSLRSEDTAVYFCARPRASLLRYFDWLFEQWGQETLVTVSS
VL: EIVLTQSPGTLSLSPGDRATLSCGASQSIHHNYVAWYQQRPGQAPRLLIFGASSRATGIPDRFTGSGSGTEFTLTINRLEPEDFAVYYCQQYGNSVPYSFGQGTKVDIK
notes: human IgG1, anti-B5
B9: VACV-300 (antibody, V domains shown)
V domain 1: QVQLVQSGAEVKKPGSSVKVSCKASGGTFSSYAISWVRQAPGQGLEWMGGIIPIFGTANYAQKFQGRVTITADESTGTAYMELTSLRSEDTAIYYCARASEQWLASINWFDPWGQGTLVTVSS
V domain 2: QSALTQPASVSGSPGQSITISCTGTSSDVGSYNLVSWYQQHPGKAPKLMIYEVSKRPSGVSNRFSASKSGNTASLTISGLQAEDEADYYCCSYAGSSTLVFGGGTQVTVL
notes: human IgG1, anti-A27
B10: VACV-154 (antibody, V domains shown)
VH: EVQLLESGGGLVQPGESLRLSCAASGFTLRNYAMSWVRQTPGKGLEWVSAISGSGGSTYYADSVKGRFTISRDTSKNTLYVQMNSLRAEDTAVYYCAKIRLDSSGYSGAFDIWGQGTRVTVSS
VL: SYELTQPPSVSVSPGQTARITCSGDALPKQYASWYQQKPGQAPVLVIYKDSERPSGIPERFSGSSSGTTVTLTISGVQAEDEADYYCQSADSSGTYPVVFGGGTQLTVL
notes: human IgG1, anti-A27
B11: VACV-303 (antibody, V domains shown)
VH: EVQLLESGGGLVQPGGSLRLSCAASGFTFSSYAMSWVRQAPGKGLEWVSAISGTGGNTYYADSVKGRFTISRDKSKNTLYLQMHSLRAEDTAVYYCATSLIWWLQSDYWGQGTLVTVSS
VL: DIQMTQSPSSLSASVGDRVTITCRASQSIASYLIWYQQKPGNAPKLLIYAASSLQSGVPSRFSGSGSGTDFTLTISSLQPEDFATYYCQQSYSTPQTFGQGTKVDIK
notes: human IgG1, anti-A27
B12: MPXV-30 (antibody, V domains shown)
VH: QVQLVQSGAEVKKPGSSVKVSCKVSGGTFSSLAINWVRQAPGQGLEWMGGIIPIFGKANYAQKFQGRVSIIADESTSTAYMDLSSLRFEDTAVYYCATGGNIRVHDFDIWGQGTLVIVSS
VL: not shown
notes: human IgG1, anti-D8
B13: MPXV-61 (antibody, V domains shown)
V domain 1: QVQLVQSGAEVKKPGSSVKVSCKASGETFSRYAFSWVRLAPGQGLEWLGRIIPFIDIPNYAQKFQGRVTITADKSTSTAYMELSSLRSEDTAVYYCASSLPSTYYFGSGNYPWGNWLDPWGQGTLVTVSS
V domain 2: QSVVTQPPSVSAAPGQNVTISCSGSSSNIGNNYVSWYHQLPGTAPKLLIYDNDKRPSGIPDRFSGSKSGTSATLGITGLQTGDEADYYCGTWDSSLSEVVFGGGTQVTVL
notes: human IgG1, anti-D8
B14: MPXV-96 (antibody, V domains shown)
VH: QVQLQQWGAGLLISSETLSLTCGVYGGSFSGYYWTWIRQPPGKGLEWIGEINYVGSTNYNPSLKSRVTMSVDTSKNHFSLSLSSVTAADTAVYYCARGLRGNSVCFDWGPGTLV
VL: ELVMTQSPATLSVSPGERASLSCRASQSVSSNLAWYQQKPGQAPRLLIYGASTRATGLPARFSGSGSGTEFTLTISSLQSEDFAIYYCQQYNNWPRTFGQGTKVDI
notes: human IgG1, anti-D8
B15: MPXV-43 (antibody, V domains shown)
VH: QVQLVQSGAEVKKPGASVKVSCKASGYTFTKYTIHWVRQAPGQRLEWVGGIYAGYGNTRYSQKFQGRVTITRDTSASTAYMELSSLRSEDTAVYFCARDFEDFDSWTGYYSWLHWGQGTLVTVSS
VL: EIVLTQSPGTLSLSPGERATLSCRASQSVSSTYLAWYQQKPGQAPRLLIYGASSRATGIPDRFSGSGSGTDFTLTITRLEPEDFAMYFCQQYDSSPSITFGQGTRLEIK
notes: human IgG1, anti-B5
B16: MPXV-12 (antibody, V domains shown)
VH: QVQLQQWGAGLLKPSETLSLTCAVYGGSFTNYYWSWIRQFPGKGLEYIGEIDHSGSANYNPSLKSRVTISLDTSKNQFSLRLSSVTAADTAVYFCARDVYGSGTYYWFDPWGQGTL
VL: DIQMTQSPTSLSASVGDRVTITCRASQRISSHLNWYQQKPGKAPKLLIYVASSLQSGVPSRFSGSGSGTDYTLTISSLQPEDFATYFCQQSYTTPYTFGQGTNLQMK
notes: human IgG3, anti-B5
B17: VACV-1 (antibody, V domains shown)
VH: EVQLVESGGGLVQPGESLKISCAASGFTFSSFSMNWVRQAPGKGLEWVSYISSSSSTIYYADSVKGRFTISRDNAKNSLYLQMNSLRDEDTAVYYCARRSVGCSGGNCYAYYYGMDVWGQGTTVTVS
VL: not shown
notes: human IgG1, anti-B5
B18: VACV-282 (antibody, V domains shown)
VH: EVQLVESGGGLVKPGGSLRLSCAASGFTFSSYSMNWVRQAPGKGLEWVSSISSISSYIYYADSVKGRFTISRDNAKNSLYLQMNSLRAEDTAVYYCARDRPRSRPNSGSYFWYYYGMDVW
VL: SYELTQPPSVSVAPGQTARITCGGNNIGSKSVHWYQQKPGQAPVLVVYDDSDRPSGIPERFSGSNSGNTATLTISRVEAGDEADYYCQVWDSNSDHRVSA
notes: human IgG1, anti-B5
B19: MPXV-39 (antibody, V domains shown)
VH: QVQLQQWGAGLLKPSETLSLTCAIYGGSLSGQYWSWIRQPPGRGLEWIGEIHHKGRTNYNPSLKSRVTISIDTSQRQFSLRLTSVSAADTAVYYCASGNYRLGQGTLVTF
VL: DVVLTQSPLTLPVTLGQPASISCRSSQSLVYSDGDTYLNWFQQRPGQAPRRLIYKVSKRDFGVPDRFSGSGSGTDFTLRISRVEAEDVGVYYCMQGTHWPRTFGQGTQVDIK
notes: human IgG3, anti-A33

What follows are binders tested against T1, VACV A27 protein (assay: cell-based or functional assay).

In order of falling “PRNT Emax, VACV MV” value:
1. B2  81%
2. B1  61%

In order of rising “PRNT Emax, VACV MV+C'” value:
1. B2  53%
2. B1  77%

In order of falling “PRNT IC50, VACV MV” value:
1. B2  12.3 µg/mL
2. B1  0.5 µg/mL

In order of falling “PRNT IC50, VACV MV+C'” value:
1. B1  0.1 µg/mL
2. B2  0.1 µg/mL

The binders below were run against T2, VACV D8 protein (assay: cell-based or functional assay).

In order of falling “PRNT Emax, VACV MV+C'” value:
1. B4  84%
2. B5  81%
3. B3  77%
4. B6  74%

In order of falling “PRNT IC50, VACV MV+C'” value:
1. B4  0.4 µg/mL
2. B6  0.3 µg/mL
3. B3  0.1 µg/mL
4. B5  0.04 µg/mL

The binders below were run against T3, VACV B5 protein (vaccinia virus, UniProt Q01227 20-275) (assay: cell-based or functional assay).

In order of falling “PRNT Emax, VACV EV+C'” value:
1. B7  72%
2. B8  67%

In order of rising “PRNT IC50, VACV EV+C'” value:
1. B7  0.2 µg/mL
2. B8  1 µg/mL

These binders were tested against T1, VACV A27 protein (assay: lysate ELISA).

B1 and B9 cannot be ordered by EC50: greater than 21 µg/mL for the first, greater than 0.37 µg/mL for the second.

Going from B10 to B11, the EC50 falls from greater than 0.1 µg/mL to 0.05 µg/mL.

In the case of B2, the EC50 is reported as 0.01 µg/mL.

The binders below were run against T2, VACV D8 protein (assay: lysate ELISA).

In order of rising EC50:
1. B14  0.001 µg/mL
2. B12  0.004 µg/mL
3. B13  0.007 µg/mL
4. B5  0.01 µg/mL
5. B6  0.04 µg/mL
6. B4  0.06 µg/mL
7. B3  0.6 µg/mL

Each binder was assayed against T3, VACV B5 protein (assay: lysate ELISA).

Going from B15 to B8, the EC50 rises from 0.011 µg/mL to greater than 6 µg/mL.

B16 gave an EC50 of 5.85 µg/mL.

The binders below were run against T1, VACV A27 protein (assay: purified antigen ELISA).

In order of rising EC50:
1. B11  0.02 µg/mL
2. B1  0.03 µg/mL
3. B10  0.06 µg/mL
4. B2  0.08 µg/mL
5. B9  0.22 µg/mL

These binders were tested against T3, VACV B5 protein (assay: purified antigen ELISA).

In order of rising EC50:
1. B17  0.02 µg/mL
2. B8  0.03 µg/mL
3. B16  0.1 µg/mL
4. B7  0.14 µg/mL
5. B18  0.155 µg/mL
6. B15  10.1 µg/mL

These binders were tested against VACV A33 protein (vaccinia virus, UniProt P68617 58-185) (assay: purified antigen ELISA).

In the case of B19, the EC50 is reported as 0.07 µg/mL.
